Source: paper PMC3695512, “Recognition of two distinct elements in the RNA substrate by the RNA-binding domain of the T. thermophilus DEAD box helicase Hera”
Where a chain is given by its changes, count along the chain named.

Key:
GST-Hera_RBD = target: T1, GST-Hera_RBD (Thermus thermophilus, UniProt O07897 424-510); experiment: EMSA; 6 uM RNA; 12% glycerol; Anisotropy: 50 mM Tris/HCl pH 7.5, 150 mM NaCl, 5 mM MgCl2 (Fig 2), 25 C, 50 nM RNA; EMSA: same Tris/NaCl, 12% glycerol, 25 C; NMR: 25 mM Bis-Tris/HCl pH 6.0, 50 mM NaCl, 10% D2O, 37 C; conditions: protein: recombinant; tags: N-terminal GST; label: 5'-fluorescein; hairpin with 5' single strand
T1 sequence: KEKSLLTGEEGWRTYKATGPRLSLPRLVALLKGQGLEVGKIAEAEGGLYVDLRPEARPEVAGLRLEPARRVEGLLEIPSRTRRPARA

Hera_K463A = target: T2, Hera_K463A (Thermus thermophilus, UniProt O07897 1-510, K463A); experiment: fluorescence anisotropy; 5 mM Mg2+; Anisotropy: 50 mM Tris/HCl pH 7.5, 150 mM NaCl, 5 mM MgCl2 (Fig 2), 25 C, 50 nM RNA; EMSA: same Tris/NaCl, 12% glycerol, 25 C; NMR: 25 mM Bis-Tris/HCl pH 6.0, 50 mM NaCl, 10% D2O, 37 C; conditions: protein: recombinant; chain copies: 2; label: 5'-fluorescein; hairpin with 5' single strand
T2 sequence: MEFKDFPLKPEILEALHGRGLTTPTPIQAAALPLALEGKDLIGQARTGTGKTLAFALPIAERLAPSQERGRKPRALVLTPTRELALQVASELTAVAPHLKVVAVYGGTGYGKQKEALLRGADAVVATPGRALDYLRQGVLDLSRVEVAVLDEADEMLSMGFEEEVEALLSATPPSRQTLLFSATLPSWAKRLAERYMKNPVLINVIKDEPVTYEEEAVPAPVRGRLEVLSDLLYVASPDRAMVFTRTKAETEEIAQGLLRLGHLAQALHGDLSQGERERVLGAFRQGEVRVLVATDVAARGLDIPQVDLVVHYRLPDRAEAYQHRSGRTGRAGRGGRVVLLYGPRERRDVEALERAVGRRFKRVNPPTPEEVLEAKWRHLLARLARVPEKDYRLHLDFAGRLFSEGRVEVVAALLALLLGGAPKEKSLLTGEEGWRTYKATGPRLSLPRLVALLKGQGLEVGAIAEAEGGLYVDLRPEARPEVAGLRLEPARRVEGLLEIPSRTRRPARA

Hera_1-491 = target: T3, Hera_1-491 (Thermus thermophilus, UniProt O07897 1-491, del492-510); experiment: as above; conditions: protein: recombinant; chain copies: 2; label: 5'-fluorescein; hairpin with 5' single strand
T3 sequence: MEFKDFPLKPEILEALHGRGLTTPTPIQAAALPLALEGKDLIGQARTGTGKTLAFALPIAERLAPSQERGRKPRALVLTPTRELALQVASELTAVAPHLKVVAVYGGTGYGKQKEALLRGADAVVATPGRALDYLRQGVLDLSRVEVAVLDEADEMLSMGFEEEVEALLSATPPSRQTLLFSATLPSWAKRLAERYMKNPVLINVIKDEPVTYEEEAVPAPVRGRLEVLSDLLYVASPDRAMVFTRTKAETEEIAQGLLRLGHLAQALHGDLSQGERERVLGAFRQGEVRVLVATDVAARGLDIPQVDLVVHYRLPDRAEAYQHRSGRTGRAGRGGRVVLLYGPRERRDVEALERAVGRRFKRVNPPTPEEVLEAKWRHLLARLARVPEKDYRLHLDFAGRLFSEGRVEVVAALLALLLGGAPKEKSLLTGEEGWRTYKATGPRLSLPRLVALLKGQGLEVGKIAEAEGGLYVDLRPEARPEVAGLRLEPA

Hera_RBD_dC-tail = target: T4, Hera_RBD_dC-tail (Thermus thermophilus, UniProt O07897 424-491, del492-510); experiment: as above; conditions: protein: recombinant; label: 5'-fluorescein; hairpin with 5' single strand
T4 sequence: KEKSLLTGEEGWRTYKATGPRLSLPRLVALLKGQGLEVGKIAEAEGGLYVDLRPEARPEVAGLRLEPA

Hera_RBD K455A = target: T5, Hera_RBD K455A (Thermus thermophilus, UniProt O07897 424-510, K455A); experiment: as above; conditions: protein: recombinant; label: 5'-fluorescein; hairpin with 5' single strand
T5 sequence: T1 sequence with K32A

Hera_RBD R487A = target: T6, Hera_RBD R487A (Thermus thermophilus, UniProt O07897 424-510, R487A); experiment: as above; conditions: protein: recombinant; label: 5'-fluorescein; hairpin with 5' single strand
T6 sequence: T1 sequence with R64A

B1: 32mer (structured_RNA)
RNA: GCAGGUCCCAAGGGUUGGGCUGUUCGCCCAUU
GST-Hera_RBD
  Kd: ~7 µM
Hera_K463A
  Kd: 1 ± 0.17 µM
Hera_1-491
  Kd: 1.1 ± 0.13 µM
Hera_RBD_dC-tail
  Kd: 13 µM
Hera_RBD K455A
  binding signal: < 5 fold Kd increase
Hera_RBD R487A
  binding signal: < 5 fold Kd increase
